Test results: the supplement of paper PMC10567573

B1: SMTNL2 (parent)
chain: AFTMAENLANCERLIEVEDMMVMG

Variants of: B1
Assay: protein stability index of a GFP-peptide fusion (GPS, HEK-293T) (PSI 1-6); higher = more stable
Conditions: c terminus: a fixed tail appended
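Further: lentivirally expressed fusions sorted by FACS into six bins by GFP to DsRed ratio, PSI derived from sequencing read proportions per bin multiplied by bin number.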

Protein stability index: each site, then its substitutions
N7: C 3.03; A 2.83; Y 1.62; T 2.62; D 3.11; V 2.66; K 2.43; P 3.41; I 2.05; M 1.67; F 1.78; H 1.92; L 2.48; S 2.45; W 1.49; E 2.21; G 2.59; Q 2.38; R 2.25
E12: L 1.7; F 2.22; A 1.75; V 1.8; M 2.54; H 2.42; G 2.06; D 3.1; Q 2.41; N 2.93; I 2.73; R 1.71; P 2.37; C 1.55; S 2.92; K 2.46; T 2.06
M4: A 4.14; N 3.76; Q 4.04; L 1.63; E 4.4; I 2.96; Y 3.13; F 2.51; T 3.78; R 3.22; D 4.08; C 3.13; V 3.18; S 4.04; H 3.81; W 2.27; P 3.74; G 4.19; K 3.77
C11: K 3.59; V 2.75; H 3.63; I 2.3; T 2.21; Q 4.09; Y 2.51; S 2.37; M 2.95; W 2.21; G 3.23; A 2.21; E 3.9; D 4.07; F 2.56; L 2.32; P 3.49; R 3.34; N 3.92
A9: R 2.31; Y 2; Q 2.91; H 2.34; E 3.65; L 2.06; C 2.48; V 2.71; N 2.49; I 1.89; P 3.84; W 1.39; T 2.85; D 4.18; M 2.57; S 2.64; G 3.16; F 1.81; K 2.3
E6: H 2.09; N 1.96; M 4.33; Y 2.76; G 2.15; R 1.51; D 2.8; C 2.27; K 1.77; S 1.65; A 1.83; Q 1.3; F 2.45; P 2.89; T 1.74; W 1.81; I 2.69
A5: T 2.83; E 4.16; W 1.81; P 3.44; R 1.93; M 2.58; C 2.27; Y 2.71; G 3.11; F 2.07; Q 2.05; L 2.48; I 3.19; N 2.7; V 2.03; D 3.78; S 2.55; H 2.01; K 2.51
L8: M 3.3; N 3.79; T 3.92; A 4.35; R 3.38; D 4.36; V 3.14; Q 4.06; S 4.28; P 4.09; Y 3.22; E 4.29; H 3.85; C 3.81; G 4.02; F 3.78; W 2.83; K 3.98; I 2.79
N10: C 2; W 1.68; L 1.64; V 2; F 2.53; E 2.01; T 2.19; M 2.1; R 2.24; D 2.01; Q 3.5; Y 2.07; I 1.86; K 2.48; G 2.79; S 2.42; P 3.37; H 2.19; A 1.84
